From patent US20220411495A1, “POSITIVE ALLOSTERIC MODULATORS OF THE CALCIUM-SENSING RECEPTOR” (VIB VZW, priority 2019, published 2022)

T1: human CaSR wild type (hCaSR WT) (Homo sapiens, UniProt P41180, E1011Q)
T1 construct: mGlu5 signal peptide (N, cleaved yes); expressed in transfected cells
T1 sequence (P41180 20-1078 E1011Q): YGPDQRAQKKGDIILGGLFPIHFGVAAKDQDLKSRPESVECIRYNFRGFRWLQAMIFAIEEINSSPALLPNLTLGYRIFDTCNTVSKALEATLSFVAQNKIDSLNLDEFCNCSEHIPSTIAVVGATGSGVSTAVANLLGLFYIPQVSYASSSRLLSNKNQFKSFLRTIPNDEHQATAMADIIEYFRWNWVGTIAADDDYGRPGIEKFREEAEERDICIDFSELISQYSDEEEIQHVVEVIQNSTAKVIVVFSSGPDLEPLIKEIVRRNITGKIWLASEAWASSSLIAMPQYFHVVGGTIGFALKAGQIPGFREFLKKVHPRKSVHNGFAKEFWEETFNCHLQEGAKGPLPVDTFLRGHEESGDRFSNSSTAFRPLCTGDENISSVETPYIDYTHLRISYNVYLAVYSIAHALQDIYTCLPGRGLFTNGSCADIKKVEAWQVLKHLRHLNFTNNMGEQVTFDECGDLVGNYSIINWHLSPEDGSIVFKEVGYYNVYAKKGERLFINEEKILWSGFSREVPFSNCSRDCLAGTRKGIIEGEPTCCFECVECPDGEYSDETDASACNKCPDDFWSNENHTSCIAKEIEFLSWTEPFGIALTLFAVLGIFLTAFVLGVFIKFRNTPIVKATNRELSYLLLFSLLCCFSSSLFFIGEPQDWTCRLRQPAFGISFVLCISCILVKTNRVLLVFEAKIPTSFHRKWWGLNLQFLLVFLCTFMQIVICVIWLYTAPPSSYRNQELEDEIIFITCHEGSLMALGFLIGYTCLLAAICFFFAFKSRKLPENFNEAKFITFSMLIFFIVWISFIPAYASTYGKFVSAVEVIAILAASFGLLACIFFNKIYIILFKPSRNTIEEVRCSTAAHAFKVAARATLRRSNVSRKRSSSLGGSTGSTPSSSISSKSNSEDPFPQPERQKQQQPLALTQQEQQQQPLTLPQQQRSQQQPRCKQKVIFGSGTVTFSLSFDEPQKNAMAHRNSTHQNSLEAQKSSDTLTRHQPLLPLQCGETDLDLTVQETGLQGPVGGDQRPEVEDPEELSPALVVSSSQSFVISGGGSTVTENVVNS


Target: T1, human CaSR wild type (hCaSR WT)
Test: IP1 accumulation assay, Flp-In HEK293 HA-hCaSR WT cells
Type: cell-based
Conditions: for Effect on Ca2+ concentration-response curve (IP1): increasing concentrations of PAM; for PAM activity in IP1 accumulation screen: fixed nanobody concentration 5 μM, 30 min pre-incubation
Experimental: Nanobodies were successfully purified by immobilized metal ion affinity chromatography (IMAC) and size exclusion chromatography (SEC) prior to pharmacological characterization (FIG. 1). Each nanobody was initially screened for Gq/11 activity in the Cisbio IP1 accumulation assay as this is the primary signaling pathway of CaSR (Chavez-Abiega et al., 2020). Whole HEK293 HA-hCaSR WT cells were pre-incubated for 30 minutes at 37° C. with a fixed nanobody concentration (5 μM) prior to stimulation with the endogenous ligand Ca^2+. The well characterized positive allosteric modulator (PAM) chemical NPS R-568 and negative allosteric modulator (NAM) chemical NPS 2143 were added as reference compounds. […] No nanobodies with agonist or NAM activity were observed when all nanobodies screened in the absence or in the presence of EC80 Ca^2+, respectively (FIGS. 4A and 4B). […] Except for CaSR Nb5, the same nanobodies acted as PAMs when ERK1/2 phosphorylation was measured in the presence of EC20 Ca^2+ (FIG. 2B). Again, none of the nanobodies elicited an agonist or NAM response (FIGS. 5B and 5C).
All cell lines utilized in this study were grown at 37° C. and 5% CO2. The HEK293A (RRID: CVCL_6910) and stable Flp-In HEK293 cells were cultured in Dulbecco's Modified Eagle Medium (DMEM, #31966021) supplemented with 10% dialyzed Fetal Bovine Serum (dFBS) and 1% 10,000 units/mL penicillin and 10,000 μg/mL streptomycin mixture (pen/strep). The stable Flp-In CHO cells were cultured in F-12K medium (#21127022) supplemented with 10% dFBS and 1% pen/strep. Additionally, the stable Flp-In HEK293 and Flp-In CHO cell lines were cultured in the presence of respectively 200 and 500 μg/mL hygromycin B. For pharmacological characterization, Flp-In HEK293 HA-hCaSR WT cells were seeded in poly-D-lysine-coated clear 96 well tissue culture plates (Corning, Corning, N.Y., USA) at a density of 50,000 cells/well 18 h prior to assay. Experiments with HA-rCaSR WT and HA-hCaSR S170A required transient transfection of HEK293A cells 24 h prior to assay. DNA construct and Lipofectamine 2000 were diluted in Opti-MEM and mixed together after 5 minutes incubation at room temperature. For HA-rCaSR WT, 30 ng/well rCaSR DNA diluted in 25 μL/well Opti-MEM was mixed with 0.25 μL/well Lipofectamine 2000 in 25 μL/well Opti-MEM. For HA-hCaSR S170A, 40 ng/well […] DNA diluted in 25 μL/well Opti-MEM was mixed with 0.25 μL/well Lipofectamine 2000 in 25 μL/well Opti-MEM. The DNA:Lipofectamine 2000 mixtures were incubated 20 minutes at room temperature after which 50 μL/well was added to a poly-D-lysine-coated clear 96 well tissue culture plate. Next, 100 μL/well of a 400,000 cells/mL HEK293A cell solution prepared in culture media was added and the plate was placed at 37° C. and 5% CO2 (final cell density 40,000 cells/well).
Inositol monophosphate (IP1) accumulation was measured using the commercially available HTRF® IP1 accumulation kit (Cisbio Bioassays, Codolet, France) and an EnVision multimode plate reader (PerkinElmer, Waltham, Mass., USA). Unless stated otherwise, the cells were washed once with 100 μL/well assay buffer and stimulated for 30 minutes at 37° C. with 50 μL/well ligand(s) diluted in assay buffer supplemented with 20 mM LiCl. Following stimulation, the cells were washed once with 100 μL/well and lysed for 30 minutes at room temperature with 30 μL/well lysis buffer provided with the kit. The lysed cells were diluted 1:2 with assay buffer after which 10 μL/well was pipetted to a white 384-well OptiPlate (PerkinElmer, Waltham, Mass., USA). Next, 10 μL of a detection solution consisting of 2.5% IP1-d2 conjugate and 2.5% anti-IP1 antibody diluted in assay buffer was added to each well. Fluorophore emissions were measured after the plate was stored in the dark for 1 h. The 615/665 nm emission ratios measured upon excitation at 340 nm were converted to IP1 concentrations with an IP1 standard curve according to the manufacturer's instructions.

[1] = IP1 accumulation at EC20 Ca2+, three independent experiments in triplicate

| Molecule | Need for pre-incubation for PAM activity (IP1) (5 μM, with or without 30 minutes pre-incubation at 37° C., EC20 Ca2+) | IP1 accumulation in the absence of added Ca2+ (1:1 ratio, total 10 μM, alone = combined with inactive Nb7) | Max. response (fold over basal ± S.E.M.), human ortholog (IP1 accumulation at EC20 Ca2+) | EC50 (IP1 accumulation at EC20 Ca2+, three independent experiments in triplicate, read-out: Potency (pEC50 ± S.E.M.), human ortholog (converted)) | Effect on Ca2+ concentration-response curve (IP1) | Potency (pEC50 ± S.E.M.), human ortholog [1] | PAM activity in IP1 accumulation screen (EC20 Ca2+) |
| --- | --- | --- | --- | --- | --- | --- | --- |
| COc1cccc([C@@H](C)NCCCc2ccccc2Cl)c1 [NPS R-568, reference compound] | did not require pre-incubation | did not induce IP1 accumulation | 3.89 ± 0.07 fold over basal | 120 nM | – | – | – |
| C[C@@H](NCCCc1cccc(C(F)(F)F)c1)c1cccc2ccccc12 [cinacalcet, reference compound] | – | – | – | – | leftward shift | – | – |
| Nb36: llama-derived CaSR-specific nanobody acting as PAM, SEQ ID NO:7 (protein, CaSR Nb36) VHH: QVQLVESGGGLVQAGESLRLSCAASGRTFSSYRMGWFRQGPGKEREFVAAITATGVRTYYADSVKGRFTISRDNAKNTVYLQMNSLQPDDTAVYLCAARRKAIFSVQQALTITDYDDWGQGTQVTVSS | – | – | 4.78 ± 0.21 fold over basal | – | – | 6.78 ± 0.17 | potentiated IP1 accumulation |
| Nb10: llama-derived CaSR-specific nanobody acting as PAM, SEQ ID NO:3 (protein, CaSR Nb10) VHH: QVQLVESGGGLVQPGDSLRVSCAASGGSFRSYAMAWFRQAPGKEREFVAAMSGTYGSTIYSDSMKGRFTISRDNAKKMVYLRMNSLRPEDTAVYYCAGYYSGAYYGTPKTDYTEYDSWGQGTQVTVSS | – | – | 3.36 ± 0.09 fold over basal | – | – | 6.33 ± 0.03 | potentiated IP1 accumulation |
| Nb15: llama-derived CaSR-specific nanobody acting as PAM, SEQ ID NO:10 (protein, CaSR Nb15) VHH: QVQLVESGGGLVQAGGSLRLSCAASGRTFNNYHMAWFRQAPGKEREFAAAISRRAGTTYYADSVKGRFTISRDNAKNTVYLQMNSLKPEDTAVYYCAADPDTYGVSYLARKYDYWGQGTQVTVSS | – | – | 3.38 ± 0.36 fold over basal | – | – | 6.59 ± 0.03 | potentiated IP1 accumulation |
| Nb5: llama-derived CaSR-specific nanobody, weakest PAM, SEQ ID NO:8 (protein, CaSR Nb5) VHH: QVQLVESGGRLVQDGGSLRLSCAASGLTFSDYSMGWFRQVPGKEREFVAVIRRSNDSTYYADFVKGRFTISRDNAKNTVYLQMNSLQPEDTAVYSCAADRGGVGLTSAQTYAYWGQGTQVTVSS | – | – | 1.88 ± 0.05 fold over basal | – | – | – | potentiated IP1 accumulation |
| Nb2: llama-derived CaSR-specific nanobody acting as PAM, SEQ ID NO:9 (protein, CaSR Nb2) VHH: QVQLVESGGGLVQAGSSLRLSCAASGRTFSNYRMAWFRQAPGKEREFVAVISRGGGGADYADSVKGRFTISRDNVKNTVSLQMNSLKPEDTAVYFCAARISGFSYYTSVDRYDYWGQGTQVTVSS | – | – | 3.52 ± 0.21 fold over basal | – | – | 6.71 ± 0.08 | potentiated IP1 accumulation |
| Nb4: llama-derived CaSR-specific nanobody acting as PAM, SEQ ID NO:5 (protein, CaSR Nb4) VHH: QVQLVESGGGLVQAGGSLRLSCAASGRTFSTYRMGWFRQGLGKEREFVAAITANGVRTFYTDSVKGRFTISRDNAKNTLYLQMNSLQPDDTAVYLCAARRKGIFTVQQAQDITDWDYWGQGTQVTVSS | – | – | 3.74 ± 0.08 fold over basal | – | leftward shift | 7.08 ± 0.13 | potentiated IP1 accumulation |
| Nb11: llama-derived CaSR-specific nanobody acting as PAM, SEQ ID NO:6 (protein, CaSR Nb11) VHH: QVQLVESGGGLVQAGGSLRLSCAASGRTFSTYRMGWFRQGPGKEREFVAAITATGVKTYYTDSVKGRFTISRDNAKNTVYLQMNSVQPEDTAVYSCAARIKAIFTAQQAATITDYDYWGQGTQVTVSS | – | – | 3.50 ± 0.17 fold over basal | – | – | 6.28 ± 0.07 | potentiated IP1 accumulation |
